Consider two proteins from patent publication US20100041096.

The target of data set [1] is endogenous NPM of 293T cells, P06748.
Data set [2] has as its target His-Flag-NPM (full length, recombinant, from E. coli), P06748.

endogenous NPM of 293T cells, P06748, sequence (P06748 whole entry): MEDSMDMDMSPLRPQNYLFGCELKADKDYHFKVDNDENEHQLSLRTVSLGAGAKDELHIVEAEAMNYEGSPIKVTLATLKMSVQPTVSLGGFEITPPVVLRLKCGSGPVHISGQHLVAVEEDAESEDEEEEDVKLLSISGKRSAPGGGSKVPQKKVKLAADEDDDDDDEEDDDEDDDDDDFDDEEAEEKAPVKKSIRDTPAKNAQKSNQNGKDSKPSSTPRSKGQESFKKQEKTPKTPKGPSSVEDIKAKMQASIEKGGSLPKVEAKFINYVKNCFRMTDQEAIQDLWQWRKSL
His-Flag-NPM (full length, recombinant, from E. coli), P06748, sequence (P06748 whole entry): as above

B1: Myc-BRCA1(1-772)/BARD1 complex (protein)
chain 1: MDLSALRVEEVQNVINAMQKILECPICLELIKEPVSTKCDHIFCKFCMLKLLNQKKGPSQCPLCKNDITKRSLQESTRFSQLVEELLKIICAFQLDTGLEYANSYNFAKKENNSPEHLKDEVSIIQSMGYRNRAKRLLQSEPENPSLQETSLSVQLSNLGTVRTLRTKQRIQPQKTSVYIELGSDSSEDTVNKATYCSVGDQELLQITPQGTRDEISLDSAKKAACEFSETDVTNTEHHQPSNNDLNTTEKRAAERHPEKYQGSSVSNLHVEPCGTNTHASSLQHENSSLLLTKDRMNVEKAEFCNKSKQPGLARSQHNRWAGSKETCNDRRTPSTEKKVDLNADPLCERKEWNKQKLPCSENPRDTEDVPWITLNSSIQKVNEWFSRSDELLGSDDSHDGESESNAKVADVLDVLNEVDEYSGSSEKIDLLASDPHEALICKSERVHSKSVESNIEDKIFGKTYRKKASLPNLSHVTENLIIGAFVTEPQIIQERPLTNKLKRKRRPTSGLHPEDFIKKADLAVQKTPEMINQGTNQTEQNGQVMNITNSGHENKTKGDSIQNEKNPNPIESLEKESAFKTKAEPISSSISNMELELNIHNSKAPKKNRLRRKSSTRHIHALELVVSRNLSPPNCTELQIDSCSSSEEIKKKKYNQMPVRHSRNLQLMEGKEPATGAKKSNKPNEQTSKRHDSDTFPELKLTNAPGSFTKCSNTSELKEFVNPSLPREEKEEKLETVKVSNNAEDPKDLMLSGERVLQTERSVESSSISLV
chain 2: MPDNRQPRNRQPRIRSGNEPRSAPAMEPDGRGAWAHSRAALDRLEKLLRCSRCTNILREPVCLGGCEHIFCSNCVSDCIGTGCPVCYTPAWIQDLKINRQLDSMIQLCSKLRNLLHDNELSDLKEDKPRKSLFNDAGNKKNSIKMWFSPRSKKVRYVVSKASVQTQPAIKKDASAQQDSYEFVSPSPPADVSERAKKASARSGKKQKKKTLAEINQKWNLEAEKEDGEFDSKEESKQKLVSFCSQPSVISSPQINGEIDLLASGSLTESECFGSLTEVSLPLAEQIESPDTKSRNEVVTPEKVCKNYLTSKKSLPLENNGKRGHHNRLSSPISKRCRTSILSTSGDFVKQTVPSENIPLPECSSPPSCKRKVGGTSGRKNSNMSDEFISLSPGTPPSTLSSSSYRRVMSSPSAMKLLPNMAVKRNHRGETLLHIASIKGDIPSVEYLLQNGSDPNVKDHAGWTPLHEACNHGHLKVVELLLQHKALVNTTGYQNDSPLHDAAKNGHVDIVKLLLSYGASRNAVNIFGLRPVDYTDDESMKSLLLLPEKNESSSASHCSVMNTGQRRDGPLVLIGSGLSSEQQKMLSELAVILKAKKYTEFDSTVTHVVVPGDAVQSTLKCMLGILNGCWILKFEWVKACLRRKVCEQEEKYEIPEGPRRSRLNREQLLPKLFDGCYFYLWGTFKHHPKDNLIKLVTAGGGQILSRKPKPDSDVTQTINTVAYHARPDSDQRFCTQYIIYEDLCNYHPERVRQGKVWKAPSSWFIDCVMSFELLPLDS
Turning to B1, the “LC/MS/MS identification of proteins conjugated with Flag-ubiquitin in the reaction of the ligase immunocomplex” value in data set [1] is listed as “Of the proteins identified, nucleophosmin/B23 (NPM) exhibited the highest possibility with 17 peptides displaying a probability based Mowse score of 126”.

B2: His-BRCA1 (1-304) / His-BARD1 (14-189) (protein)
chain 1: MDLSALRVEEVQNVINAMQKILECPICLELIKEPVSTKCDHIFCKFCMLKLLNQKKGPSQCPLCKNDITKRSLQESTRFSQLVEELLKIICAFQLDTGLEYANSYNFAKKENNSPEHLKDEVSIIQSMGYRNRAKRLLQSEPENPSLQETSLSVQLSNLGTVRTLRTKQRIQPQKTSVYIELGSDSSEDTVNKATYCSVGDQELLQITPQGTRDEISLDSAKKAACEFSETDVTNTEHHQPSNNDLNTTEKRAAERHPEKYQGSSVSNLHVEPCGTNTHASSLQHENSSLLLTKDRMNVEKAEF
chain 2: IRSGNEPRSAPAMEPDGRGAWAHSRAALDRLEKLLRCSRCTNILREPVCLGGCEHIFCSNCVSDCIGTGCPVCYTPAWIQDLKINRQLDSMIQLCSKLRNLLHDNELSDLKEDKPRKSLFNDAGNKKNSIKMWFSPRSKKVRYVVSKASVQTQPAIKKDASAQQDSYEFVSPSPPA
Consider B2, for which the “in vitro ubiquitination with purified recombinant proteins (anti-Flag immunoblot)” value in data set [2] is “two slowly floating products were detected in the gel (lane 7)”.
